# B1: Activated MMP-2 (Anaspec) (protein)
# chain: YNFFPRKPKWDKNQITYRIIGYTPDLDPETVDDAFARAFQVWSDVTPLRFSRIHDGEADIMINFGRWEHGDGYPFDGKDGLLAHAFAPGTGVGGDSHFDDDELWTLGEGQVVRVKYGNADGEYCKFPFLFNGKEYNSCTDTGRSDGFLWCSTTYNFEKDGKYGFCPHEALFTMGGNAEGQPCKFPFRFQGTSYDSCTTEGRTDGYRWCGTTEDYDRDKKYGFCPETAMSTVGGNSEGAPCVFPFTFLGNKYESCTSAGRSDGKMWCATTANYDDDRKWGFCPDQGYSLFLVAAHEFGHAMGLEHSQDPGALMAPIYTYTKNFRLSQDDIKGIQELYGASPDIDLGTGPTPTLGPVTPEICKQDIVFDGIAQIRGEIFFFKDRFIWRTVTPRDKPMGPLLVATFWPELPEKIDAVYEAPQEEKAVFFAGNEYWIYSASTLERGYPKPLTSLGLPPDVQRVDAAFNWSKNKKTYIFAGDKFWRYNEVKKKMDPGFPKLIADAWNAIPDNLDAVVDLQGGGHSYFFKGAYYLKLENQSLKSVKFGSIKSDWLGC
# Molecular target: MMP-2 sensor (1A5 variant backbone with the human MMP-2 recognition site PLGMWSR, N-terminal GST tag with TEV site, C-terminal 5xHQ tag)
protein,measurement,value
B1,"luminescence, fold increase over control (background from MMP-2 sensor); least amount of MMP-2 detected",can be used to detect as little as 0.75 ng protein

# From patent US20140030725
